To fix the notation:
B1: F1249-24-1 (antibody, from a related filing, V domains shown)
VH: QVQLQQSGAELVRPGVSVKISCKGSGYTFTDYAMHWVKQSHAKSLEWIGVISTYYGDTSYNQKFKGKATMTVDKSSSTAYMELARLTSEDSAIYYCARAEDYDPWFAYWGQGTLVTVSA
VL: DIVLTQSPASLAVSLGQRATISCRASESVDSYGNSFMHWYQQKPGQPPKLLIYRASNLESGIPARFSGSGSRTDFTLTINPVEADDVATYYCQQSDEDPLTFGAGTKLELKR
B2: F1249-30-1 (antibody, from a related filing, V domains shown)
VH: B1 VH with T69A, E89D
VL: B1 VL
B3: F1249-20-1 (antibody, from a related filing, V domains shown)
VH: B1 VH
VL: B1 VL with H38Y
B4: F1249-18-2 (antibody, from a related filing, V domains shown)
VH: QVQLQQPGAELVKPGASVKLSCKASGYTFTSYWMHWLKQRPGQGLEWIGMIHPNSDITNYNEKFKNKATLTVDKSSSTAYMQLSSLTSEDSAVYYCARSGDYYAMDYWGQGTSVTVSS
VL: SIVMTQTPKFLLVSAGDRVTITCKASQSVSNDVAWYQQKPGQSPKLLIYYASNRYTGVPDRFTGSGYGTDFTFTISTVQAEDLAVYFCQQDYSSPPTFGGGTKLEIKR
B5: F1245-4-1 (antibody, from a related filing, V domains shown)
VH: QVQLQQPGAELVKPGASVKLSCKASGCTFTSYWMHWVKQRPGQGLEWIGMIHPNSDNTNYNEKFKSKATLTVDKSSSTAYMHLSSLTSEDSAVYYCATHYYDYVDYWGQGTTLTVSS
VL: B4 VL with S1N, P96W
B6: F1232-37-2 (antibody, from a related filing, V domains shown)
VH: VQLQQSGPELVRPGESVKISCKGSGYTFTDYAIHWVKLSHAKSLEWIGVISIYYDDTNYNQKFKGKATMTVDKSSSTAYLELARLTSEDSAIYYCARRRDSSGPYAMDYWGQGTSVTVSS
VL: B1 VL with D96N, L100Y, A104G, L110I
B7: F1246-1-1 (antibody, from a related filing, V domains shown)
VH: EVQLVESGGDLVKPGGSLKLSCAASGFTFSSYGMSWVRQTPDKRLEWVATISNGGTYTYYPDSVKGRFTISRDNAKNTLYLQMSSLKSDDTAMYYCGRLRDYYAMDYWGQGTSVTVSS
VL: B1 VL with D96N, L100W, A104G, L110I
B8: F1245-7-1 (antibody, from a related filing, V domains shown)
VH: QVQLQQPGAELVKPGASVKLSCKASGYTFTSYWMHWVKQRPGQGLEWIGMIHPNSGSTNYNEKFKSKATLTVDKSSSTAYMQLSSLTSEDSAVYYCASPVTAVVEYYFDYWGQGTTLTVSS
VL: SIVMTQTPKFLLVSAGDRVTITCKASQSVSNDVAWYQQKPGQSPKLLIYYASNRYTGVPDRFTGSGYGTDFTFTISTVQAEDLAVYFCQQDYSSLTFGSGTKLEIKR
B9: F1249-5-1 (antibody, from a related filing, V domains shown)
VH: B4 VH with D73A, S99L
VL: B4 VL with A34T
B10: F1245-5-1 (antibody, from a related filing, V domains shown)
VH: QVQLQQPGAELVKPGASVKLSCKASGYTFISYWMHWVKQRPGQGLEWIGMIHPNSGSTHYNEKFKSKATLTVDKSSSTAYMQLSSLTSEDSAVYYCARGGVTPVAYWGQGTLVTVSA
VL: B4 VL with P96W
B11: F1245-6-2 (antibody, from a related filing, V domains shown)
VH: B10 VH with I30T, H59N
VL: B4 VL with D60Y, P96W
B12: F1249-3-2 (antibody, from a related filing, V domains shown)
VH: EVQLVESGGGLVKPGGSLKLSCAASGFTFSSYGMSWVRQTPDKRLEWVATISSGGSYTYYSDSVKGRFTISRDNAKNNLYLQLSSLKSQDTAIYYCARDSGYFDYWGQGTTLTVSS
VL: B1 VL with D1N, R54L, I62V, N80D, V87A, S95N, D96N, L100R, A104G, L110I

Substitutions are numbered along the chain they refer to.

One test deals with human GPVI-hFc fusion protein (human) (UniProt Q9HCN6). The test can be described thus: ELISA, immobilized hGPVI-hFc; +++ = absorbance greater than 2.0.
Molecule B1 came in with an absorbance of more than 2 od.
As for B2, the absorbance is more than 2 od.
In the case of B3, the absorbance is more than 2 od.
B4 gave an absorbance of more than 2 od.
The same measure, in the same setting: the result for B5 reads more than 2 od.

The target of the next test is rat GPVI-hFc fusion protein (rat; mouse; human). In words: ELISA, immobilized rat GPVI-hFc, control.
Sequence of rat GPVI-hFc fusion protein (rat; mouse; human) (P0C191 205-265): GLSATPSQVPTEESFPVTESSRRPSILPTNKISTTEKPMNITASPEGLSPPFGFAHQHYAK
With normal mouse IgG (antibody), the absorbance at 450 nm (absorbance 450 nm) amounted to 0.123.
The same measure, in the same setting: the result for B6 reads 0.137.

Another test has as its target human GPVI-hFc fusion protein (human) (UniProt Q9HCN6). The test can be described thus: ELISA, immobilized hGPVI-hFc; ++ = absorbance 1.0 to 2.0.
With B7, the absorbance lay within 1 to 2 od.
Consider B8, for which the absorbance lay in the range of 1 to 2 od.
On the same count and under the same terms, the result for B9 reads 1 to 2 od.
Same read-out and setting: the result for B10 reads 1 to 2 od; that for B11, 1 to 2 od.

Another test concerns the target hGPVI-mL9-hFc substituted mutant protein (human) (UniProt Q9HCN6). In words: ELISA, immobilized hGPVI-mL9-hFc.
B6: the absorbance was less than 0.5 od.
With B1, the absorbance is less than 0.5 od.
The same measure, in the same setting: with B2 the figure was less than 0.5 od.
Same read-out and setting: with B7 the figure was less than 0.5 od; with B3, less than 0.5 od.
In turn, B12 gave an absorbance of less than 0.5 od.
Still for that read-out and setting: with B8 the figure was less than 0.5 od.
Still for that read-out and setting: the result for B4 reads less than 0.5 od; that for B9, less than 0.5 od.
On the same count and under the same terms, with B10 the figure was less than 0.5 od.
For B5, the absorbance was less than 0.5 od.
With B11, the absorbance was less than 0.5 od.

The target of a further test is human GPVI-hFc fusion protein (human) (UniProt Q9HCN6). The test can be described thus: ELISA, immobilized hGPVI-hFc; + = absorbance 0.5 up to 1.0.
For the molecule B12, the absorbance lay in the range of 0.5 to 1 od.

The record behind these values is patent US20130011868A1.
